The source of these data is patent publication US20120269832A1.

Experiment [1] has as its target human CD40L protein translated from transfected CD40L mRNA (pCR2.1 CD40L WT, >100 nucleotide poly-A tail) (human) (UniProt P29965). The experiment in a line: cell-based or functional assay.
Experiment [2] has as its target CD40, the cognate receptor molecule for CD40L, on human monocyte-derived dendritic cells (human) (UniProt P25942). As to the kind of experiment: cell-based or functional assay.
Sequence of UniProt P25942 (P25942 21-277): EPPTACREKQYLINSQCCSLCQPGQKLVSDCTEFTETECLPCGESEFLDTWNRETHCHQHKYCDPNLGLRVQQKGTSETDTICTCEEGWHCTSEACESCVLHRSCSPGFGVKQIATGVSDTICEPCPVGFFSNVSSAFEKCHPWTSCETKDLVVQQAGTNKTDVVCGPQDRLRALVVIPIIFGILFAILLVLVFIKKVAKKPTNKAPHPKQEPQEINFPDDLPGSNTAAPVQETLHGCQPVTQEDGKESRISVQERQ

For the substance “blocking CD40L monoclonal antibody 24-31 (eBioscience)”, in experiment [1], the IL-12p70 (pg/ml), "Cocktail" matured and reactivated DCs co-cultured with HeLa/>100 polyA + IFN-γ + 24-31 was 2.5 pg/mL; the IL-12 p70 release from CD40L mRNA-transfected DCs cultured with IFN-γ and 10 or 50 µg/ml blocking anti-CD40L antibody stood at 50%.

Take “human CD40L protein translated from transfected CD40L mRNA (pCR2.1 CD40L WT, >100 nucleotide poly-A tail) (from UniProt P29965 1-261) (ligand)”: in experiment [2], the IL-12p70 (pg/ml), "Cocktail" matured and reactivated DCs co-cultured with HeLa/>100 polyA + IFN-γ was 26.3 pg/mL; the IL-12p70 (pg/ml), immature DCs co-cultured with HeLa/>100 polyA + IFN-γ came out at 372 pg/mL.
